Laboratory results reported in PMC3901395, “Multivalent interactions of the SUMO-interaction motifs in RING finger protein 4 determine the specificity for chains of the SUMO” (Biochemical Journal, 2013).
Substitutions are numbered along the chain they refer to.

B1: RNF4 1–125 (RNF4-SIM domain, wt), P78317 SIM2mut (protein)
chain: MSTRKRRGGAINSRQAQKRTREATSTPEISLEAEPIELVETAGDEIAAAACESLEPVVVDLTHNDSVVIVDERRRPRRNARRLPQDHADSCVVSSDDEELSRDRDVYVTTHTPRNARDEGATGLR
B2: RNF4 1–125 (RNF4-SIM domain, wt), P78317 SIM1/2mut (protein)
chain: B1 chain with I36A, E37A, L38A, V39A
B3: RNF4 1–125 (RNF4-SIM domain, wt), P78317 SIM3/4mut (protein)
chain: MSTRKRRGGAINSRQAQKRTREATSTPEISLEAEPIELVETAGDEIVDLTCESLEPVVAAAAHNDSAAAADERRRPRRNARRLPQDHADSCVVSSDDEELSRDRDVYVTTHTPRNARDEGATGLR
B4: RNF4 1–125 (RNF4-SIM domain, wt), P78317 SIM3mut (protein)
chain: B3 chain with A67V, A68V, A69I, A70V
B5: RNF4 1–125 (RNF4-SIM domain, wt), P78317 SIM2/3mut (protein)
chain: B1 chain with V59A, D60A, L61A, T62A
B6: RNF4 1–125 (RNF4-SIM domain, wt), P78317 SIM2/4mut (protein)
chain: B1 chain with V67A, V68A, I69A, V70A
B7: RNF4 1–125 (RNF4-SIM domain, wt), P78317 SIM1/3mut (protein)
chain: B3 chain with I36A, E37A, L38A, V39A, A67V, A68V, A69I, A70V
B8: RNF4 1–125 (RNF4-SIM domain, wt), P78317 SIM4mut (protein)
chain: B3 chain with A59V, A60D, A61L, A62T
B9: RNF4 1–125 (RNF4-SIM domain, wt), P78317 SIM1/4mut (protein)
chain: B3 chain with I36A, E37A, L38A, V39A, A59V, A60D, A61L, A62T

Each binder was assayed against linear di-SUMO2 (2×SUMO2-ΔN11), P61956 (assay: ITC (calorimetric titration)). Settings: chain shown with the change.
Chain of linear di-SUMO2 (2×SUMO2-ΔN11), P61956 (P61956 other isoform, or with tags, fused parts or gaps mutant): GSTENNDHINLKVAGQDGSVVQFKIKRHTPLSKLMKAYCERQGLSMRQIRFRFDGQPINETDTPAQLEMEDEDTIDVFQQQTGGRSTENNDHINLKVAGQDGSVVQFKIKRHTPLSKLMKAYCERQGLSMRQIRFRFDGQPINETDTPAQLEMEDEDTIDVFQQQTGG

Row | Kd [µM] | Binder
1 | 118 | B1
2 | 56 | B2
3 | 69 | B3
4 | 91 | B4
5 | 110 | B5
6 | 69 | B6
7 | 52 | B7

Each binder was assayed against linear tetra-SUMO2 (4×SUMO2-ΔN11), P61956 (assay: ITC (calorimetric titration)). Settings: chain shown with the change.
Chain of linear tetra-SUMO2 (4×SUMO2-ΔN11), P61956 (P61956 other isoform, or with tags, fused parts or gaps mutant): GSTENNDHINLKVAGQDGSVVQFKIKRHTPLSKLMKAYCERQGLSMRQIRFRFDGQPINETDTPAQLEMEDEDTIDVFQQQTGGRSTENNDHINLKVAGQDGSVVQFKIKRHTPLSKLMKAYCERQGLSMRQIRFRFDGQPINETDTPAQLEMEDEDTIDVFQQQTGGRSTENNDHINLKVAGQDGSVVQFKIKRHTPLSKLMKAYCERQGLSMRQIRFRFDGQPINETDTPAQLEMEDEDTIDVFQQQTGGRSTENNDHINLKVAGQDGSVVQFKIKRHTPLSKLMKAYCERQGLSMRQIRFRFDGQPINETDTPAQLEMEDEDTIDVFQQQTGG

Row | Kd [µM] | Binder
8 | 2.1 | B1
9 | 22 | B3
10 | 2.2 | B4
11 | 48 | B5
12 | 2.8 | B8
13 | 1.3 | B9
14 | 9.4 | B6
15 | 2.4 | B7

The binders below were run against linear tri-SUMO, P61956 (assay: ITC (calorimetric titration)). Settings: chain shown with the change.
Chain of linear tri-SUMO, P61956 (P61956 other isoform, or with tags, fused parts or gaps): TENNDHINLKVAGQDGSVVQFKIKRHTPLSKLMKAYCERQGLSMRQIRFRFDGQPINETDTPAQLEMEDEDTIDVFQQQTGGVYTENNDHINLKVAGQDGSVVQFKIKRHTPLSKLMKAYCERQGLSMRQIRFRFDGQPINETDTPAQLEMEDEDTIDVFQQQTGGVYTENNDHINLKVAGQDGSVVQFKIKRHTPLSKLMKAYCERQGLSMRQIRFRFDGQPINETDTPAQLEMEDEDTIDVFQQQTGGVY

Row | Kd [µM] | Binder
16 | 25 | B1
17 | 29 | B4
18 | 20 | B8
